Earlier results in paper PMC7349879.

Assays:
EpCAM (Homo sapiens) = EpCAM (Homo sapiens) (UniProt P16422)
[1] = molecular target: EpCAM cis-dimer (Homo sapiens) (UniProt P16422)
β-catenin (Homo sapiens) = β-catenin (Homo sapiens) (UniProt P35222)
Sequence of UniProt P35222 (P35222 2-781): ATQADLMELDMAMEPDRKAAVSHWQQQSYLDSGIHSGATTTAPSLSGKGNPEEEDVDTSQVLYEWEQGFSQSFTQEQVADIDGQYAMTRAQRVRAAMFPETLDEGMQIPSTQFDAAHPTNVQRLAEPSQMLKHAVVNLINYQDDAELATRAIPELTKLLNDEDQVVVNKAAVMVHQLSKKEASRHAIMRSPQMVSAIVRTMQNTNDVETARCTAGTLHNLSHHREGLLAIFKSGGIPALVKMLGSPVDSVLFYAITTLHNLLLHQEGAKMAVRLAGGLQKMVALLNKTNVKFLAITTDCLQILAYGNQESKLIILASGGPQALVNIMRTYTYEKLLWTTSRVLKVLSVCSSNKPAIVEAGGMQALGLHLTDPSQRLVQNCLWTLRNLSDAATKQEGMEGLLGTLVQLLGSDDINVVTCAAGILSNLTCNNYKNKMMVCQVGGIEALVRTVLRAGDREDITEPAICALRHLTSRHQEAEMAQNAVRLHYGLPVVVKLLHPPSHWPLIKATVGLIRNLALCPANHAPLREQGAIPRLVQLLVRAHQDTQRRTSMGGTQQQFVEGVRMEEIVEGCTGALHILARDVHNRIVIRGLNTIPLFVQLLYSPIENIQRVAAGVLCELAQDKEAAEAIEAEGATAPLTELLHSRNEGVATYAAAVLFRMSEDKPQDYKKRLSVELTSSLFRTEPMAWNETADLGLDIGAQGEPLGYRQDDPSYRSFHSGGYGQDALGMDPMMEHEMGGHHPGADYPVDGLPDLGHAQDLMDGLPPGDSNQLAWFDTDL

Q: For EpCAM (from UniProt P16422), which Kd (EpCAM (Homo sapiens)) is on record?
A: Its Kd is less than 10 nM.

Q: With EpCAM cis-dimer (from UniProt P16422) as the substance, how does the Kd [1] read?
A: Its Kd is 10000 nM.

Q: With FHL2 (from UniProt Q14192) as the substance, how does the Kd (β-catenin (Homo sapiens)) read?
A: Its Kd is 1080 nM.
